Patent publication US20190233493A1 (Sanofi, published 2019)
Each block holds one binder with its values, some of them ahead of it. *1 amine or outer side, *2 acyl side, *3 side chain or, on linkers, in order; H or OH if unused. Primed or numbered codes have the meaning given here. Side-chain parts run from the residue outwards. [ ]: non-standard residue; d: D form. The star is where a group is joined. PEG2DGA = 2-[2-[3-[2-[2-(3-aminopropoxy)ethoxy]ethoxy]propylamino-2-oxo-ethoxy]acetyl; γGlu = O=C(O)[C@H](CCC(=O)[*:2])N[*:1]; 1Nal = N[C@@H](Cc1cccc2ccccc12)C(=O)O; Stearoyl = CCCCCCCCCCCCCCCCCC(=O)*; Palmitoyl = CCCCCCCCCCCCCCCC(=O)*; Nle = CCCC[C@H](N)C(=O)O; PEG2′ = PEG2 spacer unit; PEG2″ = not defined here; Aib = CC(C)(N)C(=O)O

Molecular target: T1, RXFP1 receptor (UniProt Q9HBX9 1-757, limits assumed)
T1 sequence (looked up): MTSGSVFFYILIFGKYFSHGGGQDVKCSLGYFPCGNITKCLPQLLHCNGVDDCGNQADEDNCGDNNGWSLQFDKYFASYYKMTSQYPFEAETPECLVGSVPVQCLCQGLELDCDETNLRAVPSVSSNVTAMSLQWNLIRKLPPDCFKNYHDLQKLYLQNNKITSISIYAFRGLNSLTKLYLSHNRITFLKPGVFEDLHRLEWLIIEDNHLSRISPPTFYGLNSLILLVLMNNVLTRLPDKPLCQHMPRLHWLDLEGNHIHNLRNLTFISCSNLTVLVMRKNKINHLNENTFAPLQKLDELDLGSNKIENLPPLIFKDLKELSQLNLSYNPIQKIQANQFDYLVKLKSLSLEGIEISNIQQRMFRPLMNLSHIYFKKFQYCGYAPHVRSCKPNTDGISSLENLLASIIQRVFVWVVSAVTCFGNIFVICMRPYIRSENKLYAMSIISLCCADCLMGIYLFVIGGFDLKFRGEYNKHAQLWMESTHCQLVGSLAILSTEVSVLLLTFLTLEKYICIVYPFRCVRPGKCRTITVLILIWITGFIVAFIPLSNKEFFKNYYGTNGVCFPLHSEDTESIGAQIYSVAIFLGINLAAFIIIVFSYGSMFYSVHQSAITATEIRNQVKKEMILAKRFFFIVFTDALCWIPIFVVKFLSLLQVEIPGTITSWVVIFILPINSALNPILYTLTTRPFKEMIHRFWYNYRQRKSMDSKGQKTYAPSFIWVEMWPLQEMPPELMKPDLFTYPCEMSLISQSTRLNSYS
Assay: cell-based or functional assay

EC50 (nM), OVCAR 5 cells (cAMP): 2.74 nM
EMax, OVCAR 5 cells (cAMP): 90%
B1: peptide of SEQ ID NO: 94 (peptide)
peptide: Ac-LEGREKVRAK(Ac)I[Aib][Aib]EG[Nle]STWS[Aib]RKK(Ac)K([PEG2DGA-γGlu-γGlu-γGlu-Stearoyl])-NH2

EC50 (nM), OVCAR 5 cells (cAMP): 1.63 nM
EMax, OVCAR 5 cells (cAMP): 71%
B2: peptide of SEQ ID NO: 87 (peptide)
peptide: Ac-LEGREKVRAK(Ac)I[Aib][Aib]EG[Nle]ST[1Nal]S[Aib]RK(Ac)LK([PEG2′-PEG2′-PEG2′-γGlu-γGlu-γGlu-Stearoyl])-NH2

EC50 (nM), OVCAR 5 cells (cAMP): 0.11 nM
EMax, OVCAR 5 cells (cAMP): 74%
B3: peptide of SEQ ID NO: 88 (peptide)
peptide: Ac-LEGREKVRAQI[Aib][Aib]EG[Nle]STWS[Aib]RKKK([PEG2′-PEG2′-PEG2′-γGlu-γGlu-γGlu-γGlu-Stearoyl])-NH2

EC50 (nM), OVCAR 5 cells (cAMP): 0.03 nM
EMax, OVCAR 5 cells (cAMP): 79%
B4: peptide of SEQ ID NO: 89 (peptide)
peptide: Ac-LEGREKVRAK(Ac)I[Aib][Aib]EG[Nle]STWS[Aib]RKKK([PEG2′-PEG2′-PEG2′-γGlu-γGlu-γGlu-γGlu-Stearoyl])-NH2

EC50 (nM), OVCAR 5 cells (cAMP): 0.01 nM
EMax, OVCAR 5 cells (cAMP): 88%
B5: peptide of SEQ ID NO: 91 (peptide)
peptide: Ac-LEGREKVRAK(Ac)I[Aib][Aib]EG[Nle]STWS[Aib]RKKK([PEG2′-PEG2′-PEG2′-PEG2′-γGlu-γGlu-γGlu-Stearoyl])-NH2

EC50 (nM), OVCAR 5 cells (cAMP): 0.07 nM
EMax, OVCAR 5 cells (cAMP): 89%
B6: peptide of SEQ ID NO: 90 (peptide)
peptide: Ac-LEGREKVRAK(Ac)I[Aib][Aib]EG[Nle]STWS[Aib]RKK(Ac)K([PEG2′-PEG2′-PEG2′-PEG2′-γGlu-γGlu-γGlu-Stearoyl])-NH2

EC50 (nM), OVCAR 5 cells (cAMP): 18.9 nM
EMax, OVCAR 5 cells (cAMP): 96%
B7: peptide of SEQ ID NO: 10 (peptide)
peptide: Ac-LEGREKVRAQI[Aib][Aib]EG[Nle]STWS[Aib]RK[PEG2″]K([γGlu-γGlu-γGlu-Palmitoyl])-NH2

EC50 (nM), OVCAR 5 cells (cAMP): 0.26 nM
EMax, OVCAR 5 cells (cAMP): 82%
B8: peptide of SEQ ID NO: 92 (peptide)
peptide: Ac-LEGREKVRAQI[Aib][Aib]EG[Nle]STWS[Aib]RKKK([PEG2′-PEG2′-PEG2′-PEG2′-γGlu-γGlu-γGlu-Stearoyl])-NH2

EC50 (nM), OVCAR 5 cells (cAMP): 0.14 nM
EMax, OVCAR 5 cells (cAMP): 87%
B9: peptide of SEQ ID NO: 93 (peptide)
peptide: Ac-LEGREKVRAQI[Aib][Aib]EG[Nle]STWS[Aib]RKKK([PEG2′-PEG2′-PEG2′-PEG2′-PEG2′-γGlu-γGlu-γGlu-Stearoyl])-NH2

EC50 (nM), OVCAR 5 cells (cAMP): 1.77 nM
EMax, OVCAR 5 cells (cAMP): 89%
B10: peptide of SEQ ID NO: 96 (peptide)
peptide: Ac-LEGREKVRAK(Ac)I[Aib][Aib]EG[Nle]STWS[Aib]RKK(Ac)K([PEG2DGA-PEG2DGA-PEG2DGA-γGlu-γGlu-γGlu-Stearoyl])-NH2

EC50 (nM), OVCAR 5 cells (cAMP): 1.03 nM
EMax, OVCAR 5 cells (cAMP): 87%
B11: peptide of SEQ ID NO: 95 (peptide)
peptide: Ac-LEGREKVRAK(Ac)I[Aib][Aib]EG[Nle]STWS[Aib]RKK(Ac)K([PEG2DGA-PEG2DGA-γGlu-γGlu-γGlu-Stearoyl])-NH2
